Test results: patent US20140206609A1 (Sanofi, published 2014)
*1 amine or outer side, *2 acyl side, *3 side chain or, on linkers, in order; H or OH if unused. Where no end group is shown, it is not given here. Side-chain parts run from the residue outwards. [ ]: non-standard residue; d: D form. The star is where a group is joined. henicosanoyl = CCCCCCCCCCCCCCCCCCCCC(=O)*; γGlu = O=C(O)[C@H](CCC(=O)[*:2])N[*:1]; Stearoyl = CCCCCCCCCCCCCCCCCC(=O)*; Palmitoyl = CCCCCCCCCCCCCCCC(=O)*; Aib = CC(C)(N)C(=O)O; GABA = NCCCC(=O)O

What was measured:
Test in all cases: cell-based or functional assay
human GLP-1 receptor = human GLP-1 receptor (human, UniProt P43220 24-463)
human GIP receptor = target: T1, human GIP receptor (human, UniProt P48546 22-466)
T1 sequence (looked up): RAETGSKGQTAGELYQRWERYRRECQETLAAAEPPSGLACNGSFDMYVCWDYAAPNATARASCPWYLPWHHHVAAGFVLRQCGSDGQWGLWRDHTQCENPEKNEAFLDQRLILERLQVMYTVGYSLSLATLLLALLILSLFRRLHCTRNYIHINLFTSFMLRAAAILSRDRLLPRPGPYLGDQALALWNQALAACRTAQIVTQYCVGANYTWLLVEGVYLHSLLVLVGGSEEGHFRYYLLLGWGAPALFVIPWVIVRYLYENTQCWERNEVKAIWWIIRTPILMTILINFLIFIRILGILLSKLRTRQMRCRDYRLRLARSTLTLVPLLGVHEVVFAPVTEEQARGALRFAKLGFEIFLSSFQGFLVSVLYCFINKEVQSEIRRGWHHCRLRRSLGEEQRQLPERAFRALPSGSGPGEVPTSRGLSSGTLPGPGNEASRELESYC

human glucagon receptor = human glucagon receptor (human, UniProt P47871 26-477)
Sequence of human glucagon receptor (P47871 26-477): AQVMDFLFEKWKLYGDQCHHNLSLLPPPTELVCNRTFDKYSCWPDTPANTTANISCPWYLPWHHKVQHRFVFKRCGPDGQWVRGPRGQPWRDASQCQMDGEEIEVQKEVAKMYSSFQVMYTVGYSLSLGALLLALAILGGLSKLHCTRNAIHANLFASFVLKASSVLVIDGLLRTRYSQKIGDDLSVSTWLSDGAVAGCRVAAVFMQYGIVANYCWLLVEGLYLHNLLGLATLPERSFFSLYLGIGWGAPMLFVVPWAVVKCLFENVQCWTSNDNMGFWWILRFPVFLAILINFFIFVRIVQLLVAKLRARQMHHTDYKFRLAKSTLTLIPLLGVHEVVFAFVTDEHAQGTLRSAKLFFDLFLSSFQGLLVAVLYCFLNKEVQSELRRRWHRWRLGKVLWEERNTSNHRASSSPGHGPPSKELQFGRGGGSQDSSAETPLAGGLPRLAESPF

B1: SEQ ID NO: 13 (peptide)
peptide: Y[Aib]QGTFTSDLSIQK([γGlu-Palmitoyl])DSRAAQDFIEWLKNGGPSSGAPPPS-NH2
modifications: N-terminus assumed
SMILES: CCCCCCCCCCCCCCCC(=O)N[C@@H](CCC(=O)NCCCC[C@H](NC(=O)[C@H](CCC(N)=O)NC(=O)[C@@H](NC(=O)[C@H](CO)NC(=O)[C@H](CC(C)C)NC(=O)[C@H](CC(=O)O)NC(=O)[C@H](CO)NC(=O)[C@@H](NC(=O)[C@H](Cc1ccccc1)NC(=O)[C@@H](NC(=O)CNC(=O)[C@H](CCC(N)=O)NC(=O)C(C)(C)NC(=O)[C@@H](N)Cc1ccc(O)cc1)[C@@H](C)O)[C@@H](C)O)[C@@H](C)CC)C(=O)N[C@@H](CC(=O)O)C(=O)N[C@@H](CO)C(=O)N[C@@H](CCCNC(=N)N)C(=O)N[C@@H](C)C(=O)N[C@@H](C)C(=O)N[C@@H](CCC(N)=O)C(=O)N[C@@H](CC(=O)O)C(=O)N[C@@H](Cc1ccccc1)C(=O)N[C@H](C(=O)N[C@@H](CCC(=O)O)C(=O)N[C@@H](Cc1c[nH]c2ccccc12)C(=O)N[C@@H](CC(C)C)C(=O)N[C@@H](CCCCN)C(=O)N[C@@H](CC(N)=O)C(=O)NCC(=O)NCC(=O)N1CCC[C@H]1C(=O)N[C@@H](CO)C(=O)N[C@@H](CO)C(=O)NCC(=O)N[C@@H](C)C(=O)N1CCC[C@H]1C(=O)N1CCC[C@H]1C(=O)N1CCC[C@H]1C(=O)N[C@@H](CO)C(N)=O)[C@@H](C)CC)C(=O)O
Q: What does the source list for B1?
A: EC50 hGLP-1 R [pM] (human GLP-1 receptor): 7.3 pM; EC50 hGIP R [pM] (human GIP receptor): 71 pM; EC50 hGLUC R [pM] (human glucagon receptor): 31.3 pM

B2: SEQ ID NO: 17 (peptide)
peptide: Y[Aib]EGTFTSDLSIQK([GABA-Stearoyl])EKRAA[Aib]EFIEWLKNTGPSSGAPPPS-NH2
modifications: N-terminus assumed
SMILES: CCCCCCCCCCCCCCCCCC(=O)NCCCC(=O)NCCCC[C@H](NC(=O)[C@H](CCC(N)=O)NC(=O)[C@@H](NC(=O)[C@H](CO)NC(=O)[C@H](CC(C)C)NC(=O)[C@H](CC(=O)O)NC(=O)[C@H](CO)NC(=O)[C@@H](NC(=O)[C@H](Cc1ccccc1)NC(=O)[C@@H](NC(=O)CNC(=O)[C@H](CCC(=O)O)NC(=O)C(C)(C)NC(=O)[C@@H](N)Cc1ccc(O)cc1)[C@@H](C)O)[C@@H](C)O)[C@@H](C)CC)C(=O)N[C@@H](CCC(=O)O)C(=O)N[C@@H](CCCCN)C(=O)N[C@@H](CCCNC(=N)N)C(=O)N[C@@H](C)C(=O)N[C@@H](C)C(=O)NC(C)(C)C(=O)N[C@@H](CCC(=O)O)C(=O)N[C@@H](Cc1ccccc1)C(=O)N[C@H](C(=O)N[C@@H](CCC(=O)O)C(=O)N[C@@H](Cc1c[nH]c2ccccc12)C(=O)N[C@@H](CC(C)C)C(=O)N[C@@H](CCCCN)C(=O)N[C@@H](CC(N)=O)C(=O)N[C@H](C(=O)NCC(=O)N1CCC[C@H]1C(=O)N[C@@H](CO)C(=O)N[C@@H](CO)C(=O)NCC(=O)N[C@@H](C)C(=O)N1CCC[C@H]1C(=O)N1CCC[C@H]1C(=O)N1CCC[C@H]1C(=O)N[C@@H](CO)C(N)=O)[C@@H](C)O)[C@@H](C)CC
Q: Which results are given for B2?
A: EC50 hGLP-1 R [pM] (human GLP-1 receptor): 8.7 pM; EC50 hGIP R [pM] (human GIP receptor): 9.6 pM; EC50 hGLUC R [pM] (human glucagon receptor): 9740 pM

B3: SEQ ID NO: 16 (peptide)
peptide: Y[Aib]EGTFTSDLSIQK([γGlu-γGlu-Stearoyl])EKRAA[Aib]EFIEWLKNTGPSSGAPPPS-NH2
modifications: N-terminus assumed
SMILES: CCCCCCCCCCCCCCCCCC(=O)N[C@@H](CCC(=O)N[C@@H](CCC(=O)NCCCC[C@H](NC(=O)[C@H](CCC(N)=O)NC(=O)[C@@H](NC(=O)[C@H](CO)NC(=O)[C@H](CC(C)C)NC(=O)[C@H](CC(=O)O)NC(=O)[C@H](CO)NC(=O)[C@@H](NC(=O)[C@H](Cc1ccccc1)NC(=O)[C@@H](NC(=O)CNC(=O)[C@H](CCC(=O)O)NC(=O)C(C)(C)NC(=O)[C@@H](N)Cc1ccc(O)cc1)[C@@H](C)O)[C@@H](C)O)[C@@H](C)CC)C(=O)N[C@@H](CCC(=O)O)C(=O)N[C@@H](CCCCN)C(=O)N[C@@H](CCCNC(=N)N)C(=O)N[C@@H](C)C(=O)N[C@@H](C)C(=O)NC(C)(C)C(=O)N[C@@H](CCC(=O)O)C(=O)N[C@@H](Cc1ccccc1)C(=O)N[C@H](C(=O)N[C@@H](CCC(=O)O)C(=O)N[C@@H](Cc1c[nH]c2ccccc12)C(=O)N[C@@H](CC(C)C)C(=O)N[C@@H](CCCCN)C(=O)N[C@@H](CC(N)=O)C(=O)N[C@H](C(=O)NCC(=O)N1CCC[C@H]1C(=O)N[C@@H](CO)C(=O)N[C@@H](CO)C(=O)NCC(=O)N[C@@H](C)C(=O)N1CCC[C@H]1C(=O)N1CCC[C@H]1C(=O)N1CCC[C@H]1C(=O)N[C@@H](CO)C(N)=O)[C@@H](C)O)[C@@H](C)CC)C(=O)O)C(=O)O
Q: How did the “EC50 hGLP-1 R [pM]” value (human GLP-1 receptor) turn out when B3 was run?
A: 4 pM

Q: What about the “EC50 hGIP R [pM]” value (human GIP receptor) of the same binder?
A: 5.1 pM

Q: And the “EC50 hGLUC R [pM]” value (human glucagon receptor)?
A: 2890 pM

B4: SEQ ID NO: 19 (peptide)
peptide: Y[Aib]EGTFTSDLSIQK([γGlu-Stearoyl])EKRAAQEFIEWLKNTGPSSGAPPPS-NH2
modifications: N-terminus assumed
SMILES: CCCCCCCCCCCCCCCCCC(=O)N[C@@H](CCC(=O)NCCCC[C@H](NC(=O)[C@H](CCC(N)=O)NC(=O)[C@@H](NC(=O)[C@H](CO)NC(=O)[C@H](CC(C)C)NC(=O)[C@H](CC(=O)O)NC(=O)[C@H](CO)NC(=O)[C@@H](NC(=O)[C@H](Cc1ccccc1)NC(=O)[C@@H](NC(=O)CNC(=O)[C@H](CCC(=O)O)NC(=O)C(C)(C)NC(=O)[C@@H](N)Cc1ccc(O)cc1)[C@@H](C)O)[C@@H](C)O)[C@@H](C)CC)C(=O)N[C@@H](CCC(=O)O)C(=O)N[C@@H](CCCCN)C(=O)N[C@@H](CCCNC(=N)N)C(=O)N[C@@H](C)C(=O)N[C@@H](C)C(=O)N[C@@H](CCC(N)=O)C(=O)N[C@@H](CCC(=O)O)C(=O)N[C@@H](Cc1ccccc1)C(=O)N[C@H](C(=O)N[C@@H](CCC(=O)O)C(=O)N[C@@H](Cc1c[nH]c2ccccc12)C(=O)N[C@@H](CC(C)C)C(=O)N[C@@H](CCCCN)C(=O)N[C@@H](CC(N)=O)C(=O)N[C@H](C(=O)NCC(=O)N1CCC[C@H]1C(=O)N[C@@H](CO)C(=O)N[C@@H](CO)C(=O)NCC(=O)N[C@@H](C)C(=O)N1CCC[C@H]1C(=O)N1CCC[C@H]1C(=O)N1CCC[C@H]1C(=O)N[C@@H](CO)C(N)=O)[C@@H](C)O)[C@@H](C)CC)C(=O)O
Q: What does the source list for B4?
A: EC50 hGLP-1 R [pM] (human GLP-1 receptor): 4 pM; EC50 hGIP R [pM] (human GIP receptor): 13.8 pM; EC50 hGLUC R [pM] (human glucagon receptor): 708 pM

B5: SEQ ID NO: 14 (peptide)
peptide: Y[Aib]EGTFTSDLSIQK([γGlu-Stearoyl])EKRAAQEFIEWLKAGGPSSGAPPPS-NH2
modifications: N-terminus assumed
SMILES: CCCCCCCCCCCCCCCCCC(=O)N[C@@H](CCC(=O)NCCCC[C@H](NC(=O)[C@H](CCC(N)=O)NC(=O)[C@@H](NC(=O)[C@H](CO)NC(=O)[C@H](CC(C)C)NC(=O)[C@H](CC(=O)O)NC(=O)[C@H](CO)NC(=O)[C@@H](NC(=O)[C@H](Cc1ccccc1)NC(=O)[C@@H](NC(=O)CNC(=O)[C@H](CCC(=O)O)NC(=O)C(C)(C)NC(=O)[C@@H](N)Cc1ccc(O)cc1)[C@@H](C)O)[C@@H](C)O)[C@@H](C)CC)C(=O)N[C@@H](CCC(=O)O)C(=O)N[C@@H](CCCCN)C(=O)N[C@@H](CCCNC(=N)N)C(=O)N[C@@H](C)C(=O)N[C@@H](C)C(=O)N[C@@H](CCC(N)=O)C(=O)N[C@@H](CCC(=O)O)C(=O)N[C@@H](Cc1ccccc1)C(=O)N[C@H](C(=O)N[C@@H](CCC(=O)O)C(=O)N[C@@H](Cc1c[nH]c2ccccc12)C(=O)N[C@@H](CC(C)C)C(=O)N[C@@H](CCCCN)C(=O)N[C@@H](C)C(=O)NCC(=O)NCC(=O)N1CCC[C@H]1C(=O)N[C@@H](CO)C(=O)N[C@@H](CO)C(=O)NCC(=O)N[C@@H](C)C(=O)N1CCC[C@H]1C(=O)N1CCC[C@H]1C(=O)N1CCC[C@H]1C(=O)N[C@@H](CO)C(N)=O)[C@@H](C)CC)C(=O)O
Q: With B5 as the binder, how does the “EC50 hGLP-1 R [pM]” value (human GLP-1 receptor) read?
A: 4.3 pM

Q: What about the “EC50 hGIP R [pM]” value (human GIP receptor) of the same binder?
A: 4.4 pM

Q: And the “EC50 hGLUC R [pM]” value (human glucagon receptor)?
A: 3760 pM

B6: SEQ ID NO: 20 (peptide)
peptide: Y[Aib]EGTFTSDLSIQK([γGlu-henicosanoyl])EKRAA[Aib]EFIEWLKNTGPSSGAPPPS-NH2
modifications: N-terminus assumed
SMILES: CCCCCCCCCCCCCCCCCCCCC(=O)N[C@@H](CCC(=O)NCCCC[C@H](NC(=O)[C@H](CCC(N)=O)NC(=O)[C@@H](NC(=O)[C@H](CO)NC(=O)[C@H](CC(C)C)NC(=O)[C@H](CC(=O)O)NC(=O)[C@H](CO)NC(=O)[C@@H](NC(=O)[C@H](Cc1ccccc1)NC(=O)[C@@H](NC(=O)CNC(=O)[C@H](CCC(=O)O)NC(=O)C(C)(C)NC(=O)[C@@H](N)Cc1ccc(O)cc1)[C@@H](C)O)[C@@H](C)O)[C@@H](C)CC)C(=O)N[C@@H](CCC(=O)O)C(=O)N[C@@H](CCCCN)C(=O)N[C@@H](CCCNC(=N)N)C(=O)N[C@@H](C)C(=O)N[C@@H](C)C(=O)NC(C)(C)C(=O)N[C@@H](CCC(=O)O)C(=O)N[C@@H](Cc1ccccc1)C(=O)N[C@H](C(=O)N[C@@H](CCC(=O)O)C(=O)N[C@@H](Cc1c[nH]c2ccccc12)C(=O)N[C@@H](CC(C)C)C(=O)N[C@@H](CCCCN)C(=O)N[C@@H](CC(N)=O)C(=O)N[C@H](C(=O)NCC(=O)N1CCC[C@H]1C(=O)N[C@@H](CO)C(=O)N[C@@H](CO)C(=O)NCC(=O)N[C@@H](C)C(=O)N1CCC[C@H]1C(=O)N1CCC[C@H]1C(=O)N1CCC[C@H]1C(=O)N[C@@H](CO)C(N)=O)[C@@H](C)O)[C@@H](C)CC)C(=O)O
Q: What does the source list for B6?
A: EC50 hGLP-1 R [pM] (human GLP-1 receptor): 23.2 pM; EC50 hGIP R [pM] (human GIP receptor): 24.5 pM; EC50 hGLUC R [pM] (human glucagon receptor): 3310 pM
